The text below walks through data of article PMC2836575.

Test [1] deals with aprataxin FHA domain, recombinant, Lys38Ala (human) (UniProt Q7Z2E3). As to the kind of experiment: ITC. On the technique in general: In ITC the heat of successive injections is recorded.
In test [2] the target is aprataxin FHA domain, recombinant, wild type (human) (UniProt Q7Z2E3). Kind of test: ITC.

For the substance “MDC1 14-residue peptide phosphorylated on S329 and T331”, the Kd came to 80 µM in test [1] and 5.6 µM in test [2].
Take “MDC1 14-residue peptide phosphorylated only on T331”: in test [2], the Kd is 58 µM.

As a reminder, the Kd is the free concentration of one partner at which half of the binding sites on the other are occupied at equilibrium, for simple one-to-one binding.
